T1: CD27 expressed on the cell surface (HT1080_CD27 cells) (human, UniProt P26842 20-260)
T1 sequence (looked up): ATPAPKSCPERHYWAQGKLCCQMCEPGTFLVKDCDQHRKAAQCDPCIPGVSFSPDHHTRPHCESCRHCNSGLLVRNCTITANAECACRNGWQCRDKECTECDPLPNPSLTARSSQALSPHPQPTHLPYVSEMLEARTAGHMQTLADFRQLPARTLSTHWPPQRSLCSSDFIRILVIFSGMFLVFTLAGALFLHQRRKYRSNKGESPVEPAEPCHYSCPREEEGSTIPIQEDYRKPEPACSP

T2: CD27 protein (His-tagged, Sino Biological Inc. 10039-H08B1) (human, UniProt P26842 20-192)
T2 construct: bought; coated onto ELISA plates; also called human CD27; recombinant protein; not shown: His tag
T2 sequence (looked up): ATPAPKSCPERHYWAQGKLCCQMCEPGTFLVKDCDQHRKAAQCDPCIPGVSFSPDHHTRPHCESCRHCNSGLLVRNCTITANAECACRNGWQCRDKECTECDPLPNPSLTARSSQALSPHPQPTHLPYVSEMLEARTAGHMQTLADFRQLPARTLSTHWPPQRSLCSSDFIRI


What was measured:
[1] = target: T1, CD27 expressed on the cell surface …; assay: cell-based or functional assay
[2] = target: T2, CD27 protein (His-tagged, Sino …); assay: ELISA on coated His-tagged CD27
[3] = target: T1, CD27 expressed on the cell surface …; assay: cellular binding assay, HT1080_CD27 cells
Note: test concentration or dose not given here.

Binder	IL-8, cross-linked by F(ab')2 fragment [abs. corr.] [1] [abs. corr.]	IL-8 [abs. corr.] [1] [abs. corr.]	ELISA [abs. corr.] [2] [abs. corr.]	Cellular binding assay [RFU] [3] [RFU]
P018.S.06.A.A02 (antibody, V domains shown, V regions on human Ig constant parts; also called AB27_95) VH: QEQLVESGGGLVQPEGSLTLTCTSSGFSLNSNYYISWVRQAPGKGLEWIACIDAGSGSTWYASWVKGRFTISKTSSTTVTLQMTSLTAADTATYFCARDDIGTSYEYYFGLWGPGTLVTVSS VL: DVVLTQTPASVSEPVGGTVTIKCQASQTISSYLAWYQQKSGQPPKLLIYSASTLASGVSSRFKGSGSGTEYTLTISDLESADAATYYCQTYYGSDSYVFGGGTEVVVK	1.81	0.737	3.23	366
P018.S.01.A.C05 (antibody, V domains shown, V regions on human Ig constant parts; also called AB27_9) VH: QSLEESGGGLVQPEGSLTLTCTASGFSFSSRYYMCWVRQAPGKGLELIACIDTSSGSTWYASWAKGRFTVSKTSSTTVTLQMTSLTAADTATYFCARDLYHENSDGDWWGPGTLVTVSS VL: AFELTQTPSSVEAAVGGTVTIKCQASESINNYLAWYQQKPGQPPKLLIYKASTLASGVSSRFKGSGSGTDFTLTISGVQSDDAATYYCQSYYGASGSGSNVFGGGTEVVVK	1.4	0.327	3.19	349
P018.S.03.A.D03 (antibody, V domains shown, V regions on human Ig constant parts; also called AB27_48) VH: QEQLVESGGGLVQPEGSLTLTCTASGFSFNNNYVMSWVRQAPGKGLEWIGTIYVVSGSTYYASWVNGRFSISKTSSTTVTLQMTSLTDADTATYFCARDQLYNSGYDFDLWGPGTLVIVSS VL: AQVLTQTASPVSAAVGSTVTISCQSSQSVYNNNELSWYQQKPGQPPKLLIYQASKLASGVSSRFSGSESGTQFTLTISGVQSDDAATYYCQGTYYRSGLDNGFGGGTEVVVK	1.05	0.281	3.22	320
P018.S.08.A.A03 (antibody, V domains shown, V regions on human Ig constant parts; also called AB27_136) VH: QSLEESGGRLVTPGTPLTLTCTASGFSLSSYGMIWVRQAPGKGLEWIGMIIDVTYTYYASWAKGRFTISKTSTTVDLKMTSLTTEDTATYFCARTPGYGIYAYGNLWGQGTLVTVSS VL: AQVLTQTPSPVSAAVGGTVTISCQSSQSVYGNNWLAWYQQKPGQPPKLLIYYASTLASGVPSRFKGSGSGTQFTLTISEVQSDDAATYYCQGYYSSAAYVFGGGTEVVVK	1.64	0.276	3.21	342
P018.S.10.A.C03 (antibody, V domains shown, V regions on human Ig constant parts; also called AB27_172) VH: QSVEESGGRLVTPGTPLTLTCTVSGFSLSSYYMIWVRQAPGKGLEWIGIINTSGGAYYATWANGRFTISRTSTTVDLKITSPTTEDTATYFCARYLDNGFYCPDLWGQGTLVIVSS VL: DIVMTQTPSSVSEAVGGTVTIKCQASEDIYTLLAWYQQKPGQPPKLLIYKASILASGVSSRFKGGGSGADFTLTISDLESADAATYYCQSTYYGAAYIGAFGGGTEVVVK	1.56	0.079	3.21	360
P018.S.10.A.B01 (antibody, V domains shown, V regions on human Ig constant parts; also called AB27_166) VH: QSLEESGGRLVTPGTPLTLTCTASGFSLSSYYMSWVRQAPGKGLEWIGIIDRAGTTYYATWAKGRFTISRTSTTVDLKMTSPTTEDTGTYFCARNFIYGVGTYYGSDLWGQGTLVTVSS VL: DVVMTQTPASVSDPVGGTVTIKCQASESISRRLAWYQQKPGQPPKLLIYGASDLASGVPSRFSGSGSGTEFTLTISGVQSDDAATYYCQDTDYGSGHLGAFGGGTEVVVK	1.04	0.08	3.19	333
P018.S.02.A.G04 (antibody, V domains shown, V regions on human Ig constant parts; also called AB27_39) VH: QSLEESGGRLVTPGGSLTLTCTVSGIDLSSYAMGWVRQAPGKGLEYIGIIYTSNRTHYATWAKGRFTISKSSTTVDLKATSLTTEDTATYFCGRYGRGSGGYYYGMDLWGPGTLVTVSS VL: DIVMTQTPASVEAAVGGTVTIKCQASQSGDNYCSWYQQKPGQPPKLLIYQASKLTSGVPSRFRGSRSGTEYTLTISDLESADAATYYCQNYCAGSGVCLGIAFGGGTEVVVK	1.67	0.205	3.19	196
P018.S.07.A.G04 (antibody, V domains shown, V regions on human Ig constant parts; also called AB27_130) VH: QSLEESGGRLVTPGTPLTLTCTVSGIDLSSYAMGWVRQAPGKGLEYIAIIYTTNRTHYATWAKGRFTISKSSTTVDLKATSLTTEDTATYFCGRYGRGSGGYYYGMDLWGPGTLVTVSS VL: DIVMTQTPASVEAAVGGTVTIKCQASQSGDNYCSWYQQKPGQPPKLLIYQASKLTSGVPSRFRGSRSGTEYTLTISDLESADAATYYCQNYCAGSGVCLGIAFGGGTEVVVK	1.74	0.274	3.16	177
P018.S.06.A.C02 (antibody, V domains shown, V regions on human Ig constant parts; also called AB27_100) VH: QSVEESGGRLVTPGTPLTLTCIVSGIDLSSNAMSWVRQAPGKGLEWIGIIGFAGITYYANWAKGRFTISKTSTTVDLKITSPTTEDTATYFCARAYGDSDGLYNLWGQGTLVTVSS VL: AQVLTQTASSVSAAVGGTVTISCQSSESVYNNNWLGWFQQKPGQPPKLLIYLASTLASGVPSRFKGSGSGTQFTLTISDLESDDAATYYCQGGYSGNIFAFGGGTEVVVN	1.61	0.519	3.23	283
P018.S.01.A.E05 (antibody, V domains shown, V regions on human Ig constant parts; also called AB27_17) VH: QEQLVESGGGLVQPEGSLTLTCTASGFSFSSRYYMCWVRQAPGKGLEWIACIAPDVSGSAYYATWAKGRITISETSSTTVTLRMTSLTAADTAIYFCARSVPGSLFYFQLWGPGTVVTVSS VL: AAVLTQTPPSVSAAVGGTVTIKCQSSQSVYNKNEFSWYQQKPGQPPKLLIYDASTLASGVPSRFKGSGSGTQFTLTISDLESDDAATYYCQGSYYSSGSYTAFGGGTEVVVK	1.33	0.209	3.22	420
P018.S.07.A.E05 (antibody, V domains shown, V regions on human Ig constant parts; also called AB27_126) VH: QSLEESGGRLVTPGGSLTLTCTVSGIDLSSYAMIWVRQAPGKGLEWIGYIYGGSGSTWYASWAKGRFTISKTSSTTVDLKMTSLTTEDTATYFCARAYDSGYIGNSFYIFDPWGPGTLVTVSS VL: DIVMTQTPASVSATVGGTVTIKCQASQSISSRLAWYQQKPGQPPKLLIYSASTLASGVSSRFRGSGSGTEFTLTISDLESADGATYYCAGYGGLGITAFGGGTEVVVK	1.15	0.055	3.2	317
P018.S.03.A.D06 (antibody, V domains shown, V regions on human Ig constant parts; also called AB27_51) VH: QSLEESGGRLVTPGTPLTLTCTASGFSLSSYWMSWVRQAPGKGLEWIGYIYAGSGSAYYASWVKGRFTISKTSTTVDLKISSPTTEDTATYFCGRGNYDGYINVYDLWGPGTLVTVSS VL: DVVMTQTPSSVEAAVGGTVTIKCQASQSIGSYLAWYQKKPGQPPKLLIYAAANLAAGVPSRFKGSGSGTDFTLTINDLESADAATYYCQNNNGAYGSAYVGAFGGGTEVVVK	1.05	0.245	3.19	360
P018.S.02.A.A01 (antibody, V domains shown, V regions on human Ig constant parts; also called AB27_27) VH: QSVEESGGRLVTPGTPLTLTCTVSGIDLSRYAMGWVRQAPGKGLEYIGIISSSGSTYYASWIKGRFTISKTSTTVDLKITSPTTEDTATYFCARSPYASTSASAFNLWGPGTLVTVSS VL: AFELTQTPSSVEAAVGGTVTIKCQASQSISSWLSWYQQKPGQPPKLLIYEASKLASGVPSRFKGSGSGTQFTLTISDLESADAATYYCQSYSSTTTNTFGGGTEVVVK	1.62	0.4	3.23	350
P018.S.03.A.C04 (antibody, V domains shown, V regions on human Ig constant parts; also called AB27_45) VH: QSVEESGGRLVTPGTPLTLTCTVSGVDLSRYAMSWVRQAPGEGLEWIGTIWYSGTTYYASWAKGRFTISKTSSTTVDLKMTSLTAADTATYFCARDPLYVGGNSGSDLWGPGTLVTVSS VL: DVVMTQTPASVSAAVGGTVTINCQASQSIGSSLAWYQQKPGQRPKLLIYYASTLASGVPSRFSGSGSGTEFTLTISDLESADAATYYCQSNYGAASSSYGAFGGGTEVVVK	1.48	0.394	3.52	337
P018.S.03.A.G03 (antibody, V domains shown, V regions on human Ig constant parts; also called AB27_57) VH: QEHLEESGGGLVQPEGSLTLTCKASGFDFSSNYYMSWVRQAPGTGLEWIACIDSGSSGSTWYASWVKGRFTISKTSSTTVTLQMTSLTDADTAAYFCVRDDVGSSYEYYFSLWGPGTLVTVSS VL: DVVMTQTPASVSEPVGGTVTIKCQASQSIGSFLGWYQQKPGQPPKLLIYQASKLASGVPSRFKGSGSGTEYTLTISDLESADAAAYYCQTYFGSDSYVFGGGTEVVVK	1.58	0.546	3.21	292
P018.S.09.A.E05 (antibody, V domains shown, V regions on human Ig constant parts; also called AB27_155) VH: QSLEESGGRLVTPGTPLTLTCTVSGIDLSRYDMSWVRQAPGKGLEWIGFIGASGSTYYASWVKGRFTISKTSTTVDLKITSPTTEDTATYFCAREETDSRGYYYSLWGPGTPVTVSS VL: ALVMTQTPASVEAAVGGTVTINCQASQSISDLLGWYQQKPGQPPKLLIYDASDLASGVPSRFSGSGSGTEFTLTISGVQSDDAATYYCQQGYSINNVDNAFGGGTEVVVK	2.17	0.872	3.52	353

— patent US20210253725A1 (BIONTECH, published 2021)
